Reference: publication PMC3563686

Molecular target: His-vimentin, purified recombinant, polymerized (UniProt P08670)
Assay: co-sedimentation

Chain of His-vimentin, purified recombinant, polymerized (P08670 whole entry): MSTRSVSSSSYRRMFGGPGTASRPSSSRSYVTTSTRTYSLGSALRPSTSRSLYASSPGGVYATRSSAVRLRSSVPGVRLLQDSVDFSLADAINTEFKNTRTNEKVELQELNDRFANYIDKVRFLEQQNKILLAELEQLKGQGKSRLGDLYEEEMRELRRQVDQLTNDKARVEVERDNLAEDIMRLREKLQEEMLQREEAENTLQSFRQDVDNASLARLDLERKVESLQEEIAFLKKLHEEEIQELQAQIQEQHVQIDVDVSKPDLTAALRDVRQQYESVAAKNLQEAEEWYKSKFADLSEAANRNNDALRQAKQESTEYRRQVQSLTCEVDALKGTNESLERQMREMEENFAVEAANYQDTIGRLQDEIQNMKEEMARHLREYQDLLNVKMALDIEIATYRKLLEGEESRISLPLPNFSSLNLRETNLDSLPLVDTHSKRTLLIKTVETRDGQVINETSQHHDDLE

percent of total APC cosedimented: 18.5%
Substance: adenomatous polyposis coli (APC), endogenous in rat primary astrocytes, P70478 1-2842
